Assay results reported in patent US20220062145A1 (LIPOTRUE S L, published 2022).

Biological target: elastase enzyme
Experiment: cell-based or functional assay

- percentage of elastase inhibition with regard to the positive control (PMSF = 100%), absorbance at 405 nm: ~39 % of positive control
B1: Ac-Ala-Leu-His-Lys-Val-Lys-NH2 (peptide)
peptide: Ac-ALHKVK-NH2
